Experimental findings from article PMC9035704 are described below.

Holding throughout (test): cryo-EM structure
Experiment [1] deals with Danio rerio calcium homeostasis modulator 1 (drCALHM1) (Danio rerio) (UniProt E7F2J4).
The target is the same in experiment [2]. This is another data set of the same source.
Experiment [3] shares this target. The source holds these as a separate data set.

“And” between values parts separate entries of the source, which are not always exact repeats. Equal values may be shown once. Read-outs that look alike come from different tables or passages of the source.

Usually stoichiometry N stands for the number of molecules, sites or subunits per partner or assembly.

On to “Danio rerio calcium homeostasis modulator 1 (drCALHM1) (from UniProt E7F2J4 1-346) (natural protein)”, for which the stoichiometry N in experiment [1] is 7; in experiment [2] it was 8; in experiment [3] it was 7 and 8.
